{"source": "patent US9260754B2", "about": "“Connexin mutation detection for lymphatic variation and disease” (University of Pittsburgh—Of the Commonwealth System of …, priority 2010, dated 2016)", "molecules": {"B1": {"name": "G146S: Cx47 missense mutant G146S (436G>A), intracellular loop, construct expressed in HeLa cells or LECs (protein, listed as Homo sapiens)", "chain": "MSWSFLTRLLEEIHNHSTFVGKVWLTVLVVFRIVLTAVGGEAIYSDEQAKFTCNTRQPGCDNVCYDAFAPLSHVRFWVFQIVVISTPSVMYLGYAVHRLARASEQERRRALRRRPGPRRAPRAHLPPPHAGWPEPADLGEEEPMLSLGEEEEEEETGAAEGAGEEAEEAGAEEACTKAVGADGKAAGTPGPTGQHDGRRRIQREGLMRVYVAQLVARAAFEVAFLVGQYLLYGFEVRPFFPCSRQPCPHVVDCFVSRPTEKTVFLLVMYVVSCLCLLLNLCEMAHLGLGSAQDAVRGRRGPPASAPAPAPRPPPCAFPAAAAGLACPPDYSLVVRAAERARAHDQNLANLALQALRDGAAAGDRDRDSSPCVGLPAASRGPPRAGAPASRTGSATSAGTVGEQGRPGTHERPGAKPRAGSEKGSASSRDGKTTVWI"}, "B2": {"name": "WT-hCx47: human wild type Cx47 construct in bicistronic pIRES2-EGFP vector, expressed in HeLa cells or LECs (protein, UniProt Q5T442 1-439, looked up)", "Gap junction gamma-2 protein": "MTNMSWSFLTRLLEEIHNHSTFVGKVWLTVLVVFRIVLTAVGGEAIYSDEQAKFTCNTRQPGCDNVCYDAFAPLSHVRFWVFQIVVISTPSVMYLGYAVHRLARASEQERRRALRRRPGPRRAPRAHLPPPHAGWPEPADLGEEEPMLGLGEEEEEEETGAAEGAGEEAEEAGAEEACTKAVGADGKAAGTPGPTGQHDGRRRIQREGLMRVYVAQLVARAAFEVAFLVGQYLLYGFEVRPFFPCSRQPCPHVVDCFVSRPTEKTVFLLVMYVVSCLCLLLNLCEMAHLGLGSAQDAVRGRRGPPASAPAPAPRPPPCAFPAAAAGLACPPDYSLVVRAAERARAHDQNLANLALQALRDGAAAGDRDRDSSPCVGLPAASRGPPRAGAPASRTGSATSAGTVGEQGRPGTHERPGAKPRAGSEKGSASSRDGKTTVWI"}}, "key": {"HeLa cells": {"tested_on": "HeLa cells", "experiment": "Calcein AM scrape loading and dye transfer in stably transfected HeLa cells", "type": "cell-based, human", "conditions": "for dye transfer: ratio, rate normalized to untransfected HeLa cells, Calcein AM scrape loading, 10 min, stably transfected HeLa, mean ± SEM", "description": "A confluent monolayer of HeLa cells (untransfected and stably transfected, as described above) was grown in DMEM with 10% FBS in coverslip bottom plates (MatTek) and placed in a temperature controlled microincubator (Zeiss). A 10×, 0.4 NA objective was used to collect DIC and GFP images every 5 seconds for 10 minutes without changing media. A pipette loaded with 1 μl Calcein AM (Invitrogen), a gap junction permissive dye with molecular weight 662, −4 charge when intracellular and fluorescent, was used to create a scrape across the monolayer. At least 5 replicate dishes were analyzed on the same day, and WT hCx47 expressing HeLas were grown and assayed as a concurrent control; assays were performed on at least 2 different batches of HeLa cells on different days. Quantitation of the rate of spread was calculated using MetaMorph, by obtaining integrated intensity at the 10th time point, within the first minute of imaging, and then at the endpoint at 10 min, and subtracting the initial intensity from that at the endpoint. Results are reported as mean and SEM, and tested for significance (p<0.05) using an unpaired Student's t-test.\nIn these mutants, Cx47 appears to concentrate in the ER. Unlike electrophysiologic measurements, dye transfer assays are used to assess GJIC of relatively large molecules. We also found significant differences in GJIC in HeLa cells overexpressing Cx47 lymphedema associated mutations by assessing rates of dye transfer in a conventional scrape assay using stably transfected HeLa cells normalized to rates in untransfected HeLa cells (FIG. 7D; Table 3). […] It is not surprising that the mutants show some differences in GJIC between the electrophysiologic and dye transfer assays given that they are designed to measure different kinds of transport and that Cx channel permeability is now believed to be governed by factors including molecular shape, charge and size, in addition to channel conformation and composition."}, "[1]": {"tested_on": "Adult human dermal lymphatic microvascular endothelial cells", "experiment": "Lucifer yellow microinjection dye spread in lymphatic endothelial cells expressing mutant constructs", "type": "cell-based", "conditions": "Dye spread to tiers of LECs after 2 min; Lucifer yellow microinjection; mean ± SEM", "description": "Adult human dermal lymphatic microvascular endothelial cells were cultured in EGM™-2 MV (both from Lonza). Cells were electroporated with 2 μg cDNA of the EGFP tagged mutant constructs and then selected with G418 as described above. Cells were microinjected using a combination (1:4 ratio) of 70 kd Texas Red dextran (Invitrogen) to mark injected cell for reference and Lucifer yellow, a known gap junction permeable dye (m.w. 443, −2 charge), to assess change in extent of spread (Abbaci M, et al. Advantages and limitations of commonly used methods to assay the molecular permeability of gap junctional intercellular communication. Biotechniques 2008; 45:33-52, 6-62). All cells were injected using constant conditions and cells were scored for dye spread in tiers from reference cell, using constant exposure time and thresholding, and were imaged using a Nikon TE2000 with temperature controlled motorized stage and Qlmaging Retiga CCD camera. Images were obtained using differential interference contrast (DIC) and standard filters for EGFP (identify expression of mutation), DAPI (for Lucifer yellow) and dsRed (for dextran) preinjection, immediately post-injection and 2 min after injection. Results were calculated as mean SEM and statistical significance was determined in comparison to WT-hCx47-EGFP expressing cells using a Mann-Whitney Test."}}}
{"molecule": "B1", "values": [{"measurement": "dye transfer", "setting": "HeLa cells", "result": 1.05}, {"measurement": "Calcein AM dye transfer compared to WT-hCx47 transfected HeLa cells (in words)", "setting": "HeLa cells; stably transfected HeLa cells, scrape assay", "result": "less"}, {"measurement": "LEC spread", "setting": "[1]", "result": 2.0, "unit": "tiers"}]}
{"molecule": "B2", "values": [{"measurement": "dye transfer", "setting": "HeLa cells", "result": 1.80}, {"measurement": "LEC spread", "setting": "[1]", "result": 1.4, "unit": "tiers"}]}
